Reference: PMC2831313

What was measured:
[1] = molecular target: HapC with cysteine 74 exchanged to serine (Aspergillus nidulans); assay: SDS-PAGE without reducing agent
[2] = molecular target: HapC with cysteine 78 exchanged to serine (Aspergillus nidulans); assay: SDS-PAGE without reducing agent
[3] = molecular target: HapC(CCS) (Aspergillus nidulans); assay: SDS-PAGE without reducing agent
[4] = molecular target: HapC(CSS) (Aspergillus nidulans); assay: SDS-PAGE without reducing agent
[5] = molecular target: HapC(SCS) (Aspergillus nidulans); assay: SDS-PAGE without reducing agent
[6] = molecular target: HapC(SSC) (Aspergillus nidulans); assay: SDS-PAGE without reducing agent
[7] = molecular target: N-biotinylated HapB (Aspergillus nidulans); assay: SPR
[8] = molecular target: oxidized HapC (treated with diamide or H2O2) (Aspergillus nidulans); assay: SDS-PAGE under non-reducing conditions
[9] = molecular target: oxidized HapC(CCS) (treated with diamide or H2O2) (Aspergillus nidulans); assay: SDS-PAGE under non-reducing conditions

**Q.** For “HapC with cysteine 74 exchanged to serine (natural protein)”, which stoichiometry N [1] is on record?
**A.** The stoichiometry N was 2.

**Q.** Which stoichiometry N [2] does the source give for “HapC with cysteine 78 exchanged to serine (natural protein)” here?
**A.** Its stoichiometry N is 2.

**Q.** HapC(CCS) (natural protein) was tested. Which stoichiometry N [3] did it give?
**A.** The stoichiometry N was 2.

**Q.** HapC(CSS) (natural protein) was tested. Which stoichiometry N [4] did it give?
**A.** The stoichiometry N was 2.

**Q.** For HapC(SCS) (natural protein), which stoichiometry N [5] is on record?
**A.** The stoichiometry N was 2.

**Q.** HapC(SSC) (natural protein) was tested. Which stoichiometry N [6] did it give?
**A.** The stoichiometry N was 2.

**Q.** For “heterodimer composed of the HapC(CCS) mutant and HapE (complex)”, which Kd [7] is on record?
**A.** The Kd was 0.0368 µM.

**Q.** For “heterodimer of HapC with cysteine 74 exchanged to serine and HapE (complex)”, which HapB binding affinity relative to the HapC/HapE heterodimer [7] is on record?
**A.** The HapB binding affinity relative to the HapC/HapE heterodimer was 50%.

**Q.** Which HapB binding affinity relative to the HapC/HapE heterodimer [7] does the source give for “heterodimer of HapC with cysteine 78 exchanged to serine and HapE (complex)” here?
**A.** Its HapB binding affinity relative to the HapC/HapE heterodimer is 50%.

**Q.** Which stoichiometry N [8] does the source give for “oxidized HapC (treated with diamide or H2O2) (natural protein)” here?
**A.** The stoichiometry N was 2.

**Q.** Which stoichiometry N [9] does the source give for “oxidized HapC(CCS) (treated with diamide or H2O2) (natural protein)” here?
**A.** The stoichiometry N was 2.
